Source: patent publication US20110059555, “BRANCHED AND MULTI-CHAIN NUCLEIC ACID SWITCHES FOR SENSING AND SCREENING” (Syracuse University, published 2011)

B1: M2 tethered switch (mixed)
DNA: GCATGCCTCCGCATGCTCACAGCACGACTCAGATGG
mixed: CCATCTGAGTCGTGCACGCUAGCGGUGGCUAGC
modifications: DNA strand / DNA-RNA chimera (UAGCGGUGGCUAGC is RNA)
B2: M3 tethered switch (mixed)
DNA: GCTATCCACCGATAGCTCACAGCACGACTCAGATGG
mixed: CCATCTGAGTCGTGCACGCUAGCGGUGGCUAGC
modifications: DNA strand / DNA-RNA chimera (UAGCGGUGGCUAGC is RNA)

What was measured:
[1] = biological target: NCp7 (nucleocapsid protein, Zn2.NCp7(1-55)) (HIV-1) (UniProt P35962); conditions: Trp assay; virtually identical Kd
[2] = biological target: NCp7 (nucleocapsid protein, Zn2.NCp7(1-55)) (HIV-1) (UniProt P35962); conditions: virtually no change in Kd
[3] = biological target: T1, NCp7 (nucleocapsid protein, Zn2.NCp7(1-55)) (HIV-1, UniProt P35962 SEQ:1-55); assay: Trp assay; K2 similar to that of SL3 RNA; conditions: label: 5'-dabcyl, T-FAM at 17 of the all-DNA strand; tethered duplex with hairpins (O-form favoured)
T1 chain: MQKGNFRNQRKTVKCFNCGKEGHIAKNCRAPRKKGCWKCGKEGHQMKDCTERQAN

[4] = biological target: T1, NCp7 (nucleocapsid protein, …); assay: equilibration with NCp7 within a minute at 10 nM switch; conditions: label: 5'-dabcyl, T-FAM at 17 of the all-DNA strand; tethered duplex switch

| Molecule | binding signal (fold Kd vs SL3) [2] | also measured |
| --- | --- | --- |
| SL3 16mer | – | binding signal (fold Kd vs SL3 20mer) [1]: 1 |
| SL3 A315-U322 | 1 | – |
| SL3 C315-G | 1 | – |
| SL3 G316-C321 | 1 | – |
| B1 | – | binding signal [3]: ~1 fold K2 vs SL3 RNA |
| B2 | – | binding result [4]: binds |
